Assay: yeast display, Sf9 membrane polyspecificity reagent, FACS + sequencing; frameworks hold sequencing errors
Procedure, shortened: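 In a synthetic yeast display library (Saccharomyces cerevisiae BJ5465), nanobody expression was induced with galactose for 36–48 hours. FACS gates were set low and high (top ~1%) using anti-HA fluorescence for expression and streptavidin fluorescence for binding of the Sf9 membrane reagent. Each polyreactivity label is drawn from the gate of origin.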

| Sequence | polyreactivity (PSR sort gate) |
| --- | --- |
| QVQLVESGGGLFQAGGSLRLSCAASGFTVRRYTMGWYRPATGKEREMVATISLSDGNTYYADSVKGRFTISRDNAKNTVYLQMNRLKAEDTAFYDCNAYSQSWNFYGDGDYWGQGTQVTVSS | low polyreactivity |
| QVQLVESGGGLFQAGGSLRLSCAASGGTFNFYAMGWYRQAPGKERELVARIDSGVSTNYADTVKGRFTISRDNAKNTVYLQMNSLKPEDTAVYYCNAERYRSRRYPYRYLYYYWGQGTQVTVSS | high polyreactivity |
| QVQLVESGGGLFQAGGSLRLSCAASGIIFRYYAMGWSRQAPGKEREFVASINFSGSSTYYADSVKGRFTISRDKAKNTVYLQMNSLKPEDTAVYYCAAGRRWLYDYWGQGTQVTVSS | high polyreactivity |
| QVQLVESGGGLFQAGGSLRLSCAASGLIFRAYAMVWYRQSPGKERELVADITRSGGRTYYADSVKGRFTISRDNAKNTVYLQMNSLKPEDTAVYYCAAYVYSYWFYRGYEYWGQGTQVTVSS | high polyreactivity |
| QVQLVESGGGLFQAGGSLRLSCAASGLTFYRYVMGWYRQAPGKERELVAAISDSGGSTYYADSVKGRFTISRDNAKNTVYLQMNSLKPEDTAVYYCAAEAPSFVYYSRYDYWGQGTQVTVSS | high polyreactivity |
| QVQLVESGGGLFQAGGSLRLSCAASGRIFGGYAMGWYRQAPGTERELVAAIDWDGGSTYYADSVKGRFTISRDNEKNTVYLQMNSLKPEDTAVYYSNAVKWTWWSSSGDYDYWGQGTQVTVSS | high polyreactivity |
| QVQLVESGGGLFQAGGSLRLSCAASGRIFQGYVMGRYRQAPGKERELVAVISRRGGITNYADSVKGRFTISSDNAKNSVYLQIYRLKPEDTAVYYCNSVTRVYNNGQYGYWGQGTQVTVSS | high polyreactivity |
| QVQLVESGGGLFQAGGSLRLSCAASGRIFVFYTMGWYRQAPGKERELVASINSGGSTYYADSVKGRFTISRDNAKNTVYLQMNSLKPEDTAVYYCAASRTRRGVRQFDYWGQGTQVTVSS | high polyreactivity |
| QVQLVESGGGLFQAGGSLRLSCAASGRIFYSNAMGWYRQAPGKERELVASISPNSGPTYYADSVKGRFTISRDNAKNTVYLQMNSLKPEVTAVYYCAARGGYYQDGLVTGVAEYGYCGQGTQVTVSS | low polyreactivity |
| QVQLVESGGGLFQAGGSLRLSCAASGRISYGNAMGWYRQAPGKEMELVAAISGSGGSKYYADSVKGRFTISRDNAKNTVYLQMNSLKPEDTAVYYCAADSRKRQGYGYWGQGTQVTVSS | low polyreactivity |
| QVQLVESGGGLFQAGGSLRLSCAASGRTFAYYTMGWYRQAPGKERELVAAITSSGGSTYYADSEKGRFTISRDNAKNTVYLQMNSLKPEDTAVYYCNAYGLRWASRLGYDYWGQGTQVTVSS | high polyreactivity |
| QVQLVESGGGLFQAGGSLRLSCAASGRTFISNPMGWYRQAPGKVWEMVASITSGGSTNYADSVKGRFTISRDNAKNSVYVHMYSQNREDTAVYYCAAEGLVVGWTEEDYWGQGTQVTVSS | low polyreactivity |
| QVQLVESGGGLFQAGGSLRLSCAASGRTITYYAMGWYRQAPGKERELVAAITWSGGSTYYADSVKGRFTISRDNAKNTVYLQMNSMKPEDTAVYYCAKEFYYSSGFDYWGQGTQVTVSS | low polyreactivity |
| QVQLVESGGGLFQAGGSLRLSCAASGSIFDVNVMGWYRQAPGKERELVASINISGASTYYADSVTGRFTISRDNAKNTVYLQMNSLKPEDTAVYYCAVTYGVPSFRYGYWGQVTQVTVSS | low polyreactivity |
| QVQLVESGGGLFQAGGSLRLSCAASGSIFFYNNMGWYRQAPGKERELVDAISASGGRTYYADSVKGRFTISRDNAKNSVYLQMYSLKPEDTAVYYCAVRVPYRGYTRYDYWGQGTQVTVSS | high polyreactivity |
| QVQLVESGGGLFQAGGSLRLSCAASGSIFNRYAMGWYRQAPGKERELVAAISSGGRTKYADSVKGRFTISRDNAKNTVYLQMNSLKPEDTAVYYCNAAYFLSGTCRTFDYWGQGTQVTVSS | high polyreactivity |
| QVQLVESGGGLFQAGGSLRLSCAASGSIFQYYTMRWYRQAPGKERELVATINNNGGRTYYADSVKGRFTISRDNAMNSVYFQMYSLKPVDTAVYYCATDIWRYYRGWEDYWGQGTEVTVSS | high polyreactivity |
| QVQLVESGGGLFQAGGSLRLSCAASGSIFRDNVMVWYIHAPGKERELVAVITSGGSTNYADSVKGRFTISRDNAKNTVYLQMNSLKPEDTAVYYCNAAKTGSQSRLEYWGQGTQVTVSS | high polyreactivity |
| QVQLVESGGGLFQAGGSLRLSCAASGSIFSWNDMGWYRQAPGKERELVAAINWNGGSTYYADSVKGRFTISRDNEKNSVYLQMNSLKPEYSEVYYCAAERSLYYVYSREYWGQGTQVTVSS | low polyreactivity |
| QVQLVESGGGLFQAGGSLRLSCAASGSIFTPNTMGWYRKAPGKERELVAAITIRGGSTYYADSLKGRFTISRDNAKNTVYLQMNSLKPEDTAVYYCATEYALRYYLVDYWGQGTQVTVSS | low polyreactivity |
| QVQLVESGGGLFQAGGSLRLSCAASGSIINIYAMGWYRQAPGKERELVATITGIADSTYYADSVKGRFTISRDNAKNTVYLQMNSLKPEDTAVYYCAADKYVADYDYWGQGSQVTVSS | low polyreactivity |
| QVQLVESGGGLFQAGGSLRLSCAASGSTFWFNAMGWYRQAPGKERELVAAITSGDGTNYADSVKGRFTISRDNAKNTVYLQMNSLKPEVTAVYYCATVYADESGIEGYSWGQGTQVTVSS | low polyreactivity |

| Sequence | polyreactivity (PSR sort gate) |
| --- | --- |
| QVQLVESGGGLFQAGGSLRLSCADSGSTFSLYAMGWDRQAPGKDRELVAAITWSGGSTYYADSEKGRFTISRDNAKTTVYLQMTSLPPEDTAVYYCAAHRIGYYLRVSYRGKYDHWGQGTQVTVSS | low polyreactivity |
| QVQLVESGGGLFQAGGSLRLSCAPSGRIFTTYAMGWYRQAPGKDRELVAAISRSGGSSYYADSVKGRFTISRDNAKNTVYLQMKSLKQEDTAVYFCAAVPTSNSFRSSFYNWGQGTQVTVSS | high polyreactivity |
| QVQLVESGGGLFQAGGSLRLSCAPSGRTFDYNAMGWYRQAPGKERELVAAISGSGTRTFYADSVKGRFTISRDNAKNTVYLQMNSLKPEDTAVYYCAASHGWSKSIFYYWGQGTQVTVSS | high polyreactivity |
| QVQLVESGGGLFQAGGSLRLSSAASGRIIRRNAMGWYRQAPGKEWDLDAAITSSGGNTYYADSVKGRFTISRDNAKNTVYLQMNSLKPEDSAVYYCATYPGNWDLDYWGQGTQVTVSS | high polyreactivity |
| QVQLVESGGGLFQAGGSLRLSSAASGTRYYAMGWYRPAPGKERELVAGIRWRDGGTYYADSVKGRFTISRDNAKNTFYLQLNSLKPEDTAVYYCNASVTSWYKRAGYYWGQGSQVTVSS | high polyreactivity |
| QVQLVESGGGLFQAGGSLRLTCAASGFTFIKYSMGWYRQAPGKEREFVATISWNGGNTYYADSVKGRFTISRDNAKNTVYLQMNSLKPEVTAVYYCAARVKYRTRGGTVVSYDYWGQGTQVTVSS | high polyreactivity |
| QVQLVESGGGLFQAGGSLRLTCAASGITFYYYAMGWYRQAPGKERELVAAISVRGTRTFYADCVKWRFTISRDNAKNTVYLQMNSLKPEDTEVYYCNKSVSNDDGLEYWGQGTQVTVSS | high polyreactivity |
| QVQLVESGGGLFQAGGSLSLSCAATGIIFRSYAMGWYRQAPGKEREMVAAITRSGGSTYADSVKGRFTISRDNAKNTVDLQMNSLKPEDTAVYYCAADRYSGWVYRRDYWGQGTQVTVSS | low polyreactivity |
| QVQLVESGGGLFQAGGTLRLSCAASGRIFVYYAMGWYRQAPGKERELVASITTGGRTYYADSVKGRFTISRDNAKNTVYLQMNSLKPEDTAVYYCAARKYSYTWYDYWGQGTQVTVSS | high polyreactivity |
| QVQLVESGGGLFQAGGTLRLSCASSGLIFSRYAMGWYRQSPGKEWELVAGISTSGGRTYYADSVKGRFTISRYNAKNTVYFQMNSLKPEDTAVYYCAAQFKYRQINSYLLGDYWGQGTQVTVSS | high polyreactivity |
| QVQLVESGGGLFQAGVSLRLSCAASGLIFYGNAMGWYRQAPGKERELVAAITGGGGNTYYADSVKGRFTISRYYAKITVYLQMNSLKPEDTAVYYCATATSTAYVRYYYWGQGTQVTVSS | high polyreactivity |
| QVQLVESGGGLFQEGGSLRLICAASGFTFSGYAMGWYRQAPGKERELVDAISSSGGSTYYADSVKGRFTISRDNAKNTVYLQMNSLKPEDTAVYYCYDRSRYYPGYSRFFYWGQGTQVTVSS | high polyreactivity |
| QVQLVESGGGLFQEGGSLRLSCAASGRIFYGYGMGWYRQAPGKERELVAAITWSGSRTYYADSVKGRFTISRDNAKNTVYVQMNSLKPEDTAVYYCAARIPSDGYYYWGQGTQVTVSS | high polyreactivity |
| QVQLVESGGGLGQAGGSLLLSCAASGSTFKYNAMGWNRKAPGKERELVPAISRGGRTNYADSVKGRFKISRDNAKNTVYLQMNSLKPEDTAVYYCAKDVAGLFHVGALYYYWGQGTQVTVSS | low polyreactivity |
| QVQLVESGGGLGQAGGSLRLSCAASGFIFTFYAMGWNRQAPGKERELVAAISWSGGSTYYADSVKGRFTISHDNAKNTVYLQMNSLKPEDTAVYSCNAQHARGYYYWGQGTQVTVSS | low polyreactivity |
| QVQLVESGGGLGQAGGSLRLSCAASGFTFPWYAMGWYRPAPGKERELVASISYRGDSTYYADSVKGRFTISRDNAKNTVYLEMNSLKPEDTAVYYCNNSLASYYLPGFDYWGQGTQVTVSS | low polyreactivity |
| QVQLVESGGGLGQAGGSLRLSCAASGFTFRYYAMGWSRQAPGKERELVAAITGSGGRTYYADSVKGRFTISRDNAKNTVYLQKNSLKPEDSAVYYCARDVDPRGRYYWGQGTQVTVSS | high polyreactivity |
| QVQLVESGGGLGQAGGSLRLSCAASGRIFAGYAMGWYRQAPGKERELVAAISWSGSSTHYADSVKGRFTISRDNAKNTVYFQMNSLKPEDTAVYYCAADLKDTRLFPWFFEYDYWGQGTQVTVSS | low polyreactivity |
| QVQLVESGGGLGQAGGSLRLSCAASGRIFRGYAMGWYRQAPGTDRELVATISAIGGSTYADSVKGRFTIARDNAKNTVYLQMNSLKPEDTAVYYCNKVHFRPRYFLRSDYWGQGTQGTVSS | high polyreactivity |
| QVQLVESGGGLGQAGGSLRLSCAASGRIFRYNAMGWYRQAPGKDRELVAVITSRGGRTYYADSVKGRFTLSRDNAKNTVYLQMTSLKPEDSAVYYCTATYSGRGSTYWSGYDYWGQGTQVTVSS | high polyreactivity |
| QVQLVESGGGLGQAGGSLRLSCAASGRTLGIYAMGWYRQAPGKERELVAAITWSGGSTYYADSVKGRFTISRDNAKNTVYLQMNSLKPEDTAVYYCNVRSGGKRRNSGRVDYWGQGTQVTVSS | low polyreactivity |
